In general, Kd refers to a measure of binding affinity in units of concentration.

Results on three molecules are retold here after US20160115245A1 (VIB VZW, published 2016).

Assay [1] has as its target T1, recombinant human superoxide dismutase [Cu-Zn] (SOD1), wild type (human, UniProt P00441 2-154).
T1 construct: Used immobilised in the dot blot and in solution in ITC; The construct is not described further; also called recombinant SOD1; SOD1 WT
As to the kind of experiment: isothermal titration calorimetry, 25 C. Background: In ITC the heat of successive injections is recorded.

For assay [2], the target named is T1, recombinant human superoxide dismutase …. Put plainly: isothermal titration calorimetry, 25 C. This is another data set of the same source.
The target of assay [3] is T2, SOD1-CFP (human SOD1 fused to CFP, expressed in HeLa cells) (human, UniProt P00441 2-154).
T2 construct: not shown: CFP of pCDNA3-CFP (Addgene #13030)
T2 sequence (P00441 2-154): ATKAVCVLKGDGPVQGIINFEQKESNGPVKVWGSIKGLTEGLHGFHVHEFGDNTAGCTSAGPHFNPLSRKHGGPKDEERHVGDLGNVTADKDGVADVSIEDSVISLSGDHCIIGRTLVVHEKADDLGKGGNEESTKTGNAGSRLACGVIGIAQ
Put plainly: Ni-agarose pull-down of HA-Myc-His6 tagged nanobody from co-transfected HeLa cells, blot anti-CFP.

T1 sequence (P00441 2-154 limits assumed): as the sequence (P00441 2-154) above

B1: Nb1, His6-tagged, expressed in E. coli (pET30a) (VHH)
VHH: QVQLQESGGGLVQPGGSLRLSCRASETLFSLYAMGWYRQAPGKQPELIATISGGGEGTGNYADPVKGRFTISRNNADNMVFLQMNNLKPEDTAVYYCNVYGTNLAPWGQGTQVTVSS
notes: Alpaca-derived nanobody; also called SOD1 nanobody from alpaca library; not shown: His6 tag and the pET30a vector residues around it
For B1, in assay [1], the ΔH was -11 kcal/mol and the ΔS was -17 cal/mol/deg. Also, the equilibrium dissociation constant (Kd) in assay [2] was ~200 nM.

B2: Nb2, His6-tagged, expressed in E. coli (pET30a) (VHH)
VHH: QVQLQESGGGSVQAGGSLRLACVASGGDTRPYITYWMGWYRQAPGKEREGVATIYTGGSGTYYSDSVEGRFTISQDKAQRTVYLQMNDLKPEDTAMYYCAAGNGALPPGRRLSPQNMDTWGPGTQVTVSS
notes: Dromedary-derived nanobody; also called SOD1 nanobody from dromedary library; not shown: His6 tag from pET30a (BamHI/XhoI)
For the molecule B2, in assay [1], the ΔH was -16 kcal/mol and the ΔS is -23 cal/mol/deg. In addition, the Kd in assay [2] was ~1000 nM.

B3: Nb4 (VHH)
VHH: QVQLQESGGGSVQTGGSLRLSCAASGYTFSSYCMGWFRQAPGKERELVSTIISDGSTYYADSVKGRFTISQDNAKNTVYLQMNNLKAEDTAIYYCAARSGGVCSGRASRYNYWGQGTQVTVSS
notes: Same nanobody as m4, but in the HeLa-expressed HA-Myc-His6 format of m6-m8; also called Nb4, HA-Myc-His6 tagged, expressed in HeLa cells
As for B3, the binding result in assay [3] is given as “no binding”.
